Assay [1] has as its target PRO87299(ECD)-Fc (human). Description: Biacore; PRO87299(ECD)-Fc amine coupled (~9000 RU), HVEM injected at 2µg/ml, against the PR04346-Fc control flow cell. (In SPR one partner is held on a chip, and binding of the other changes the refractive index at the surface.)
Assay [2] concerns the target LIGHT expressed on cells. Description: radioligand binding to transfected cells, Scatchard analysis.
Assay [3] has as its target PRO87299/LIGHT expressed together on cells (human). Kind of assay: radioligand binding to cells expressing PRO87299 and LIGHT together, Scatchard analysis.
Assay [4] has as its target HVEM expressed on transfected 293 cells. Description: radioligand binding to transfected cells, Scatchard analysis.
The target is the same in assay [5]. Description: radioligand binding to transfected cells, displacement with unlabelled protein, Scatchard analysis.
Assay [6] has as its target HVEM-Fc. Kind of assay: Biacore; HVEM-Fc amine coupled (~7500 RU), 8nM PRO87299(ECD)-Fc, read 105 seconds after injection.

“HVEM (protein of the SPDI protein library) (receptor)” returned a response units over control (response units) in assay [1] of 1200. Take HVEM-Fc (Fc fusion): the Kd was 7 nM in assay [2] and 0.5 nM in assay [3]. The substance I-125-LIGHT-FLAG (ligand) gave a Kd in assay [4] of 2.5 nM. Regarding PRO87299(ECD)-Fc (Fc fusion), the Kd in assay [5] was 25 nM. In assay [6], the response units was 100 RU.

A word on the Kd: it is the concentration at which binding is half-saturated. Read a low Kd as tighter binding.

Values taken from EP1812465B1.
